Series [1] concerns the molecule itself. The series can be described thus: native gel after co-expression (1:1 DNA level).
For series [2], the target named is T1, CD19 on Raji B cells (UniProt P15391 20-556, limits assumed).
T1 construct: whole, on cells; also called Raji CD19 B cells
T1 sequence (looked up): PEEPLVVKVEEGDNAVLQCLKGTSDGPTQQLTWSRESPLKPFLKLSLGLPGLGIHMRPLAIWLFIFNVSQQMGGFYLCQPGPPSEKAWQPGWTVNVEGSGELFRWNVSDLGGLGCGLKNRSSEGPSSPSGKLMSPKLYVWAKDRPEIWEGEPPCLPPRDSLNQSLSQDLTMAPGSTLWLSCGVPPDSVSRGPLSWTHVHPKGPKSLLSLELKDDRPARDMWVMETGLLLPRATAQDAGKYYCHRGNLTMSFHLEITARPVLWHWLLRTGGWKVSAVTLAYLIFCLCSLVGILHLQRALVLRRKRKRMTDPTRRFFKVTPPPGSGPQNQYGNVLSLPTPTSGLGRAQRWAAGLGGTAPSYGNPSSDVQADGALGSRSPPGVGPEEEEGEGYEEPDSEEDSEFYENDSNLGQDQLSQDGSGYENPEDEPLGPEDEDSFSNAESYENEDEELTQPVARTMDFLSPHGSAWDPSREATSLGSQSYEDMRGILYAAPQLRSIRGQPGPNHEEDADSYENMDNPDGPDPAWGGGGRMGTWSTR
The series is described as follows: FACS on Raji cells (CD19).

Series [3] concerns the target T2, Human FcRn (hFcRn) (human, UniProt P55899 24-297; P61769 21-119, limits assumed).
T2 construct: also called neonatal Fc receptor
The series is described as follows: SPR, hFcRn immobilized, v1378 flowed over at pH 6.0. From the text: Methods are identical to Example 2, except the directionality of the assay was reversed.

This is an account of results in patent US20190375823A1 (Zymeworks, published 2019).

T2 sequence (P55899 24-297 limits assumed, chain 1 of 2): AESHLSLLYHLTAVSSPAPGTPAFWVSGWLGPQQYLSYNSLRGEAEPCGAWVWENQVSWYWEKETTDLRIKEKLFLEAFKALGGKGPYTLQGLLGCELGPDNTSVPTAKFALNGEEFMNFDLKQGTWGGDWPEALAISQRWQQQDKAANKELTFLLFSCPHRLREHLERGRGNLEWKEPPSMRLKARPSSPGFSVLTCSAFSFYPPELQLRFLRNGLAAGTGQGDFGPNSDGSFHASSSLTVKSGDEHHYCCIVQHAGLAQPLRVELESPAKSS
T2 sequence (P61769 21-119 limits assumed, chain 2 of 2): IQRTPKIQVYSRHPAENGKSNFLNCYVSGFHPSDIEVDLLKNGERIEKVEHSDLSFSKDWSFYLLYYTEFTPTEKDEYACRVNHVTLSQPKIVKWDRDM

B1: Albumin based Transporter polypeptide 1-Ver 1 (ABH1 fragment, albumin 1:293) (other)
chain: DAHKSEVAHRFKDLGEENFKALVLIAFAQYLQQCPFEDHVKLVNEVTEFAKTCVADESAENCDKSLHTLFGDKLCTVATLRETYGEMADCCAKQEPERNECFLQHKDDNPNLPRLVRPEVDVMCTAFHDNEETFLKKYLYEIARRHPYFYAPELLFFAKRYKAAFTECCQAADKAACLLPKLDELRDEGKASSAKQRLKCASLQKFGERAFKAWAVARLSQRFPKAEFAEVSKLVTDLTKVHTECCHGDLLECADDRADLAKYICENQDSISSKLKECCEKPLLEKSHCIAEV
notes: also called ABH1 transporter polypeptide A; ABH1 fragment 1
As to B1, the binding result in series [1] is given as “no binding”.

B2: V1093 (bispecific antibody)
anti-CD19 scFv fused to the N terminus of transporter polypeptide 1 (albumin 1-337): DIQLTQSPASLAVSLGQRATISCKASQSVDYDGDSYLNWYQQIPGQPPKLLIYDASNLVSGIPPRFSGSGSGTDFTLNIHPVEKVDAATYHCQQSTEDPWTFGGGTKLEIKGGGGSGGGGSGGGGSQVQLQQSGAELVRPGSSVKISCKASGYAFSSYWMNWVKQRPGQGLEWIGQIWPGDGDTNYNGKFKGKATLTADESSSTAYMQLSSLASEDSAVYFCARRETTTVGRYYYAMDYWGQGTTVTVSSGGSDAHKSEVAHRFKDLGEENFKALVLIAFAQYLQQCPFEDHVKLVNEVTEFAKTCVADESAENCDKSLHTLFGDKLCTVATLRETYGEMADCCAKQEPERNECFLQHKDDNPNLPRLVRPEVDVMCTAFHDNEETFLKKYLYEIARRHPYFYAPELLFFAKRYKAAFTECCQAADKAACLLPKLDELRDEGKASSAKQRLKCASLQKFGERAFKAWAVARLSQRFPKAEFAEVSKLVTDLTKVHTECCHGDLLECADDRADLAKYICENQDSISSKLKECCEKPLLEKSHCIAEVENDEMPADLPSLAADFVESKDVCKNYAEAKDVFLGMFLYEYARA
transporter polypeptide 2 (albumin 342-585) with anti-CD3 scFv at the C terminus: not shown
In series [2], B2 displayed a Kd of 49 nM.

B3: v1378: AlbuCORE_1 (ABH2) with anti-HER3 at the N terminus of fragment 1 and anti-HER2 (4D5) at the N terminus of fragment 2 (bispecific antibody)
chain 1: QVQLQESGGGLVKPGGSLRLSCAASGFTFSSYWMSWVRQAPGKGLEWVANINRDGSASYYVDSVKGRFTISRDDAKNSLYLQMNSLRAEDTAVYYCARDRGVGYFDLWGRGTLVTVSSASTGGGGSGGGGSGGGGSQSALTQPASVSGSPGQSITISCTGTSSDVGGYNFVSWYQQHPGKAPKLMIYDVSDRPSGVSDRFSGSKSGNTASLIISGLQADDEADYYCSSYGSSSTHVIFGGGTKVTVLGGGSDAHKSEVAHRFKDLGEENFKALVLIAFAQYLQQCPFEDHVKLVNEVTEFAKTCVADESAENCDKSLHTLFGDKLCTVATLRETYGEMADCCAKQEPERNECFLQHKDDNPNLPRLVRPEVDVMCTAFHDNEETFLKKYLYEIARRHPYFYAPELLFFAKRYKAAFTECCQAADKAACLLPKLDELRDEGKASSAKQRLKCASLQKFGERAFKAWAVARLSQRFPKAEFAEVSKLVTDLTKVHTECCHGDLLECADDRADLAKYICENQDSISSKLKECCEKPLLEKSHCIAEVENDEMPADLPSLAADFVESKDVCKNYAEAKDVFLGMFLYEYARA
chain 2: not shown
notes: also called variant 1378; anti-Her3xHer2 ABH2
For B3, in series [3], the equilibrium dissociation constant (Kd) was found to be 970 nM.
